This passage reports EC50 results from patent CN115028713A (JIANGSU DONGKANG BIOMEDICAL TECH CO LTD, dated 2022).

As usually defined, the EC50 is the midpoint of the concentration-response curve. A higher EC50 goes with a less potent agent.

The target of the assay is T1, SARS-COV2-N-B1617 (N protein of SARS-CoV-2 variant B1617) (SARS-CoV-2 variant B1617).
T1 construct: also called 冠状病毒SARS-COV2变异株B1617

B1: 单克隆抗体OP2 (anti-SARS-CoV-2 N protein monoclonal antibody OP2) (antibody, V domains shown)
VH: DVQLVESGGGLVQPGGSRKLSCAASGSTFSNFGMHWVRQAPEKGLEWVAYISSASSIIYYADTVKGRFTISRDNPKNTLFLQMTSLRSEDTAMYYCARSAMDYWGQGTSVTVSS
VL: DIVLTQSPASLAVSLGQRATISCKASQSVNYSGDSYMNWFQQKPGQPPKLLIYAASNLESGIPARFSGSGSGTDFTLNIHPVEEEDAATYYCQQSEEQPYTFGGGTKLEIK
notes: also called 抗N蛋白的抗体
B1 showed an EC50 of 0.0166 µg/mL.
